Laboratory results: article PMC7326497, “Membrane characteristics tune activities of endosomal and autophagic human VPS34 complexes” (eLife, 2020)

Target: T1, human VPS15, subunit of complexes I and II (human, UniProt Q99570 1-1358)
T1 construct: VPS15, human; expressed as HsVPS15-3xTEV-ZZ from the plasmid HsVPS34 + HsVPS15-3xTEV-ZZ; A 3xTEV site lies between VPS15 and ZZ; whether the tag was cut off is told only in Ohashi et al., 2016; The printed theoretical masses fit tag-free whole chains (my reckoning); also called HsVPS15; source: Expi293 cells, transfected, co-expressed with the other subunits, purified as a complex (method of …)
T1 sequence (Q99570 whole entry, one chain of several): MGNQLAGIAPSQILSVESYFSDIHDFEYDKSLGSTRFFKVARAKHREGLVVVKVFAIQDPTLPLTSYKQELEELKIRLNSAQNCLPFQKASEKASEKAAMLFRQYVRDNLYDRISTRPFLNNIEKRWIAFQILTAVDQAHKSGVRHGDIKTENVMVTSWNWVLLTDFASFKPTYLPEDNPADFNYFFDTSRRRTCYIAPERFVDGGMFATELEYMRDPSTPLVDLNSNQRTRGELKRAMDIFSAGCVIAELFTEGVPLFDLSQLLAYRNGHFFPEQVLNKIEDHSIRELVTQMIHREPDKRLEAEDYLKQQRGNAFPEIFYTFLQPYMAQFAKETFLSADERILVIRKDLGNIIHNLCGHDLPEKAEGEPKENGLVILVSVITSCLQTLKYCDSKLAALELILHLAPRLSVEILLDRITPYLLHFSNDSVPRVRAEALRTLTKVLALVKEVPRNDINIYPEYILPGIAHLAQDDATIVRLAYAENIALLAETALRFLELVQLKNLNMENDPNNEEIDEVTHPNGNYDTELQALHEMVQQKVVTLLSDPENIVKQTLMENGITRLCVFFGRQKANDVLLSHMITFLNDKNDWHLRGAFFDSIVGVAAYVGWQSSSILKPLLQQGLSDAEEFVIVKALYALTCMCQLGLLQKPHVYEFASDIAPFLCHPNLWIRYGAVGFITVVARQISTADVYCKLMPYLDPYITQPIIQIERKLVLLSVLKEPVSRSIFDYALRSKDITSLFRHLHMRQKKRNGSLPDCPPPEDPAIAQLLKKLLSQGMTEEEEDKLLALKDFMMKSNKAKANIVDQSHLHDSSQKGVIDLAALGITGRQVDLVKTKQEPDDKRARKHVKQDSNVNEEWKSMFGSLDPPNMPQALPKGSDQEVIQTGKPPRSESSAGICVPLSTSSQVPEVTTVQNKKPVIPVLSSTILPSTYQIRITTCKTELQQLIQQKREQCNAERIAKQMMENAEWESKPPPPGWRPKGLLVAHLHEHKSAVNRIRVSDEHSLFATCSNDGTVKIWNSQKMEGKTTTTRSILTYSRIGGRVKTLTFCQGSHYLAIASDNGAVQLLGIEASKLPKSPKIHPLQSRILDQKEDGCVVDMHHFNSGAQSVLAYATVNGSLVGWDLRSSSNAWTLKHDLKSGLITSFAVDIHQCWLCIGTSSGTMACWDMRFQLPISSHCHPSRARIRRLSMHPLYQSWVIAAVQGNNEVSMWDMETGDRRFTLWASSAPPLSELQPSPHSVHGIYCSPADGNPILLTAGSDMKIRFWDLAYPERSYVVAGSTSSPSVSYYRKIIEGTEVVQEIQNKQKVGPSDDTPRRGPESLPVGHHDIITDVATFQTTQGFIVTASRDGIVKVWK
Assay: SEC-MALS; purified, co-expressed human complex II at 0.8 mg/mL; Superose 6 10/300, 0.5 mL/min; measured 384 kDa against 386 kDa theoretical
Details: both partners purified

stoichiometry N: 1
B1: human UVRAG, specific subunit of complex II (natural protein, UniProt Q9P2Y5 1-699, looked up)
chain: MSASASVGGPVPQPPPGPAAALPPGSAARALHVELPSQQRRLRHLRNIAARNIVNRNGHQLLDTYFTLHLCSTEKIYKEFYRSEVIKNSLNPTWRSLDFGIMPDRLDTSVSCFVVKIWGGKENIYQLLIEWKVCLDGLKYLGQQIHARNQNEIIFGLNDGYYGAPFEHKGYSNAQKTILLQVDQNCVRNSYDVFSLLRLHRAQCAIKQTQVTVQKIGKEIEEKLRLTSTSNELKKKSECLQLKILVLQNELERQKKALGREVALLHKQQIALQDKGSAFSAEHLKLQLQKESLNELRKECTAKRELFLKTNAQLTIRCRQLLSELSYIYPIDLNEHKDYFVCGVKLPNSEDFQAKDDGSIAVALGYTAHLVSMISFFLQVPLRYPIIHKGSRSTIKDNINDKLTEKEREFPLYPKGGEKLQFDYGVYLLNKNIAQLRYQHGLGTPDLRQTLPNLKNFMEHGLMVRCDRHHTSSAIPVPKRQSSIFGGADVGFSGGIPSPDKGHRKRASSENERLQYKTPPPSYNSALAQPVTTVPSMGETERKITSLSSSLDTSLDFSKENKKKGEDLVGSLNGGHANVHPSQEQGEALSGHRATVNGTLLPSEQAGSASVQLPGEFHPVSEAELCCTVEQAEEIIGLEATGFASGDQLEAFNCIPVDSAVAVECDEQVLGEFEEFSRRIYALNENVSSFRRPRRSSDK
notes: UVRAG, human; see Supplementary file 6; also called HsUVRAG; not shown: ZZ (only in pYO1018 and pYO1023)
